Reference: FireProtDB (doi:10.1006/jmbi.2000.4053)
“And” between values parts separate entries of the source, which are not always exact repeats. Identical values can stand only once.

Conditions: Homo sapiens, pH 5, 25 °C, structure 1TEN
[1] = GdnHCl, Fluorescence, Sodium acetate 50mM, transition: 2

Substance	ddG of mutation (higher = less stable) (Urea, CD, Sodium acetate 50 mM)	denaturant m value (Urea, CD, Sodium acetate 50 mM)	denaturant midpoint (higher = more stable) (Urea, CD, Sodium acetate 50 mM)	ddG of mutation (higher = less stable) [1]	denaturant m value [1]	denaturant midpoint (higher = more stable) [1]
Tenascin, P24821 S875A	-0.04 kcal/mol	1.1 kcal/mol/M	5.36 M	–	–	–
Tenascin, P24821 S882A	–	–	–	2.82 kcal/mol	5.23 kcal/mol/M	1.1 M
Tenascin, P24821 T867S	1.22 kcal/mol	1.2 kcal/mol/M	4.32 M	–	–	–
Tenascin, P24821 V811A	1.36 kcal/mol	1.2 kcal/mol/M	4.21 M	1.36 kcal/mol	3.03 kcal/mol/M	1.3 M
Tenascin, P24821 V871A	2.81 kcal/mol	1.3 kcal/mol/M	3.01 M	–	–	–
Tenascin, P24821 Y837A	4.22 kcal/mol	1.5 kcal/mol/M	1.86 M	–	–	–
Tenascin, P24821 Y858A	1.38 kcal/mol	1.3 kcal/mol/M	4.19 M	1.38 kcal/mol	–	1.3 M
Tenascin, P24821 Y858G	4.14 kcal/mol and 2.76 kcal/mol	1.3 kcal/mol/M	1.93 M	–	4.19 kcal/mol/M	1.3 M
Tenascin, P24821 Y869F	3.13 kcal/mol	1.3 kcal/mol/M	2.75 M	3.13 kcal/mol	3.01 kcal/mol/M	1.3 M
